Reference: publication doi:10.1101/2025.06.10.658772 (bioRxiv, 2025)

What was measured:
[1] = biological target: T1, C-terminally large NanoLuc fragment (LgBiT)-fused Dr-GPR25 (zebrafish (Danio rerio), UniProt A0AC58GT18 1-377); assay: cell-based or functional assay
T1 sequence: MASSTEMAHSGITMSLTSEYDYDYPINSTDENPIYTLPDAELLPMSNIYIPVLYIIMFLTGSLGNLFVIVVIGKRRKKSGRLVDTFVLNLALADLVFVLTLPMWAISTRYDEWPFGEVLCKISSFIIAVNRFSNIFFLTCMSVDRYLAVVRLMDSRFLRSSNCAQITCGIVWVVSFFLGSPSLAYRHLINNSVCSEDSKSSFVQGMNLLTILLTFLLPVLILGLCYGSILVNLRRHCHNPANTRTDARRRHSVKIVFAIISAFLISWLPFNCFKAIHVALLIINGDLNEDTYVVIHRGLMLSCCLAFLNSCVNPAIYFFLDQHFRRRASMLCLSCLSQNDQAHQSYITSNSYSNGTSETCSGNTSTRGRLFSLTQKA

[2] = biological target: T2, C-terminally LgBiT-fused Lc-GPR25 (coelacanth (Latimeria chalumnae), UniProt H3AQL3 1-365); assay: cell-based or functional assay
T2 sequence: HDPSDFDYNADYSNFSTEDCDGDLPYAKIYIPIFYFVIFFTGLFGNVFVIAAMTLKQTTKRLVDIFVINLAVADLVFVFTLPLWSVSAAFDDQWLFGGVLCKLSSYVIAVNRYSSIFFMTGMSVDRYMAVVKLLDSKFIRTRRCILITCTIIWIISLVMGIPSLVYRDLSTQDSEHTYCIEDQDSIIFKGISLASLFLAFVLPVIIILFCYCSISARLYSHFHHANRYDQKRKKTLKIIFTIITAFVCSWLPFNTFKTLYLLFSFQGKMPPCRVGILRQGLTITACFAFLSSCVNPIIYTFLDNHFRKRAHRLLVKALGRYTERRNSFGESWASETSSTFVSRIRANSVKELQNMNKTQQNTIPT

B1: N-terminally 6×His-tagged wild-type (WT) human CXCL17 (ligand)
chain: SSLNPGVARGHRDRGQASRRWLQEGGQECECKDWFLRAPRRKFMTVSGLPKKQCPCDHFKGNVKKTRHQRHHRKPNKHSRACQQFLKQCQLRSFALPL
[1]
  NanoBiT-based β-arrestin recruitment (SmBiT-ARRB2), EC50 of the dose curve: ~60 nM
  NanoBiT-based β-arrestin recruitment (SmBiT-ARRB2), maximal effect: ~5 fold over background
[2]
  NanoBiT-based β-arrestin recruitment (SmBiT-ARRB2), EC50 of the dose curve: ~300 nM
  NanoBiT-based β-arrestin recruitment (SmBiT-ARRB2), maximal effect: ~3 fold over background
